Laboratory results: publication PMC7402102

Tests used:
CC(=O)CC(=O)O = experiment: purified protein; settings: 1 mM succinyl-CoA, pH 8.6, 37 °C, 15 mM MgCl2
[1] = system: CC(C)(COP(=O)(O)OP(=O)(O)OC[C@H]1O[C@@H](n2cnc3c(N)ncnc32)[C@H](O)[C@@H]1OP(=O)(O)O)[C@@H](O)C(=O)NCCC(=O)NCCSC(=O)CCC(=O)O; experiment: purified protein; settings: acetoacetate co-substrate, pH 8.6, 37 °C, 15 mM MgCl2

## HsSCOT (Homo sapiens)
CC(=O)CC(=O)O
  Km: 765 µM
  kcat: 105 s⁻¹
[1]
  Km: 971 µM
  kcat: 190 s⁻¹
